Reference: publication PMC3181058

Molecular target: Protein A (Staphylococcus aureus) (UniProt P38507)
Experiment: ITC

| KA, first binding site | N, first binding site | dH, first binding site | dH | stoichiometry N | Substance |
| --- | --- | --- | --- | --- | --- |
| 3.48e+06 M⁻¹ | 1.65 | -93.9 kcal/mol |  |  | Nanoparticle-conjugated trastuzumab (CS-DOX-mAb) (antibody) |
|  |  |  | -105 kcal/mol | 2.78 | Trastuzumab (Herceptin), free monoclonal antibody |
